From publication PMC9860181 (Plant Communications, 2022)
Read-outs that look alike come from different tables or passages of the source.

Legend:
[1] = target: T1, UVR8^W285A-Strep II (A. thaliana, UniProt Q9FN03 1-440, W285A); assay: pull-down
T1 sequence: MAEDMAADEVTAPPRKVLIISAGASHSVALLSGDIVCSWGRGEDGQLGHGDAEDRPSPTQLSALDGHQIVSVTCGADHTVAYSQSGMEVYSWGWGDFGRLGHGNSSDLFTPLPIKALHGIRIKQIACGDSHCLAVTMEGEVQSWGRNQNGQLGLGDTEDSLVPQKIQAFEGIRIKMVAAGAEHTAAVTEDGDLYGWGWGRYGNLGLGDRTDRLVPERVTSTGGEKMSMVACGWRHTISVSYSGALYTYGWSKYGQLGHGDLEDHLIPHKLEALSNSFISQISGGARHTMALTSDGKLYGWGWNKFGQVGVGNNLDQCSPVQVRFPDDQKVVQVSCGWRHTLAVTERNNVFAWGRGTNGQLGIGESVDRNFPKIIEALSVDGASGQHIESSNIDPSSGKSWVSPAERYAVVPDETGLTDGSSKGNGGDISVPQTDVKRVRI

[2] = target: the molecule itself; assay: SDS-PAGE of dimer and monomer
[3] = target: T1, UVR8^W285A-Strep II; assay: pull-down; remark: listed apart in the source
[4] = target: T2, UVR8^W285A (residues 12–421) (A. thaliana, UniProt Q9FN03 12-421, W285A); assay: crystal structure
T2 sequence: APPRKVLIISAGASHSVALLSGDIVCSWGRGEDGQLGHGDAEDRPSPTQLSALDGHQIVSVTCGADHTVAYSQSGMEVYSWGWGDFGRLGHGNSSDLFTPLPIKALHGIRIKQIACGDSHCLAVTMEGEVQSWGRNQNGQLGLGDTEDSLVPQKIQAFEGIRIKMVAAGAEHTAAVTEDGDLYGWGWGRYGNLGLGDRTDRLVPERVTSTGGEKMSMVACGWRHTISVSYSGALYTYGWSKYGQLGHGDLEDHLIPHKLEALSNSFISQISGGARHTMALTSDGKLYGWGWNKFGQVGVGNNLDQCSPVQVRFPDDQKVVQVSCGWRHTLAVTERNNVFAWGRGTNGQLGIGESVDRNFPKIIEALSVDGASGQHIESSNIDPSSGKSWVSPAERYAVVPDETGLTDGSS

B1: REPRESSOR OF UV-B PHOTOMORPHOGENESIS 2 (RUP2), C-terminal 3×Flag (natural protein)
chain: MNTLHPHKQQQEQAQQQEEARYEWDLSLSTVVSSSSSSASDVIGAIEFDPTDNIVATAGISRKIRFYGLPSLLRNNAVSGTGVSFVDQATACEYYICTPAKLSSLRWRPGSGGRVIGSGDYDGVVMEYDLEKRTPVFERDEHGGRRVWSVDYTRHGGASTVGASGSDDGTMQVWDPRCPPEESVGVVRPAGICRSAVCCVEFDPSGGPAVAVGCADRKGYVYDIRKLVDPALTLQGHTKTVSYVRFLDGGTVVTAGTDGCLKLWSVEDGRVIRTYEGHVNNRNFVGLSVWRNGALFGCGSENNRVFVYDRRWGKPVWVDGFEPVGMNSGSDKRFVSSVCWRQSGVDQCTLVAGGSDGVLQVYVGKRKP
binding result [1]: binds

B2: UVR8^N396 (residues 1–396) (domain or fragment)
chain: MAEDMAADEVTAPPRKVLIISAGASHSVALLSGDIVCSWGRGEDGQLGHGDAEDRPSPTQLSALDGHQIVSVTCGADHTVAYSQSGMEVYSWGWGDFGRLGHGNSSDLFTPLPIKALHGIRIKQIACGDSHCLAVTMEGEVQSWGRNQNGQLGLGDTEDSLVPQKIQAFEGIRIKMVAAGAEHTAAVTEDGDLYGWGWGRYGNLGLGDRTDRLVPERVTSTGGEKMSMVACGWRHTISVSYSGALYTYGWSKYGQLGHGDLEDHLIPHKLEALSNSFISQISGGWRHTMALTSDGKLYGWGWNKFGQVGVGNNLDQCSPVQVRFPDDQKVVQVSCGWRHTLAVTERNNVFAWGRGTNGQLGIGESVDRNFPKIIEALSVDGASGQHIESSNIDPSS
binding result [2]: binds

B3: REPRESSOR OF UV-B PHOTOMORPHOGENESIS 1 (RUP1), C-terminal 3×Flag (natural protein)
chain: MEALFCSEIPNNNIRSSINDLSSSSSYTWPMIMTSSSSSSSSPTIMNIENIPRCDWDLSLSAVVSSASTGSDAIGAIEFDPTGEIIATGGIARKIRSYRLSSLLESRDDHVTASESYICTPAKLSSLKWRPDFSGRVIGSGDYDGVVTEYDVEKQVPVSERDEHGGRRIWSVDYTLYNGSLIGASGSDDGTVQMWDPRNGGTLEETVRPGGGAAICSVEFDPFGGSSIAVGCADRNAYVYDIRRLVDPLIVLDGHTKTVTYARFMDSHTIVTGSTDGSLKQWDIDNGRRVVRTYRGHVNSRNFVGLSVWRHGGLVVSGSENNQVFVYDKRWEEPVWVCGLGHTNRFGSDRRFVSSVCLRQVDEDWCTLVAGGSDGALEIFSGKQS
binding result [3]: binds

B4: RUP2 (residues 21–366) (domain or fragment)
chain: RYEWDLSLSTVVSSSSSSASDVIGAIEFDPTDNIVATAGISRKIRFYGLPSLLRNNAVSGTGVSFVDQATACEYYICTPAKLSSLRWRPGSGGRVIGSGDYDGVVMEYDLEKRTPVFERDEHGGRRVWSVDYTRHGGASTVGASGSDDGTMQVWDPRCPPEESVGVVRPAGICRSAVCCVEFDPSGGPAVAVGCADRKGYVYDIRKLVDPALTLQGHTKTVSYVRFLDGGTVVTAGTDGCLKLWSVEDGRVIRTYEGHVNNRNFVGLSVWRNGALFGCGSENNRVFVYDRRWGKPVWVDGFEPVGMNSGSDKRFVSSVCWRQSGVDQCTLVAGGSDGVLQVYVGKR
binding result [4]: binds
